This note sets out measurements from patent US20120288481A1 (BRIGHAM AND WOMEN S HOSPITAL, published 2012).

This test deals with human EphA2 receptor on human cardiac stem cells (hCSCs) (human, UniProt P29317 24-976). In words: cell-based or functional assay.
Sequence of human EphA2 receptor on human cardiac stem cells (hCSCs) (P29317 24-976 limits assumed): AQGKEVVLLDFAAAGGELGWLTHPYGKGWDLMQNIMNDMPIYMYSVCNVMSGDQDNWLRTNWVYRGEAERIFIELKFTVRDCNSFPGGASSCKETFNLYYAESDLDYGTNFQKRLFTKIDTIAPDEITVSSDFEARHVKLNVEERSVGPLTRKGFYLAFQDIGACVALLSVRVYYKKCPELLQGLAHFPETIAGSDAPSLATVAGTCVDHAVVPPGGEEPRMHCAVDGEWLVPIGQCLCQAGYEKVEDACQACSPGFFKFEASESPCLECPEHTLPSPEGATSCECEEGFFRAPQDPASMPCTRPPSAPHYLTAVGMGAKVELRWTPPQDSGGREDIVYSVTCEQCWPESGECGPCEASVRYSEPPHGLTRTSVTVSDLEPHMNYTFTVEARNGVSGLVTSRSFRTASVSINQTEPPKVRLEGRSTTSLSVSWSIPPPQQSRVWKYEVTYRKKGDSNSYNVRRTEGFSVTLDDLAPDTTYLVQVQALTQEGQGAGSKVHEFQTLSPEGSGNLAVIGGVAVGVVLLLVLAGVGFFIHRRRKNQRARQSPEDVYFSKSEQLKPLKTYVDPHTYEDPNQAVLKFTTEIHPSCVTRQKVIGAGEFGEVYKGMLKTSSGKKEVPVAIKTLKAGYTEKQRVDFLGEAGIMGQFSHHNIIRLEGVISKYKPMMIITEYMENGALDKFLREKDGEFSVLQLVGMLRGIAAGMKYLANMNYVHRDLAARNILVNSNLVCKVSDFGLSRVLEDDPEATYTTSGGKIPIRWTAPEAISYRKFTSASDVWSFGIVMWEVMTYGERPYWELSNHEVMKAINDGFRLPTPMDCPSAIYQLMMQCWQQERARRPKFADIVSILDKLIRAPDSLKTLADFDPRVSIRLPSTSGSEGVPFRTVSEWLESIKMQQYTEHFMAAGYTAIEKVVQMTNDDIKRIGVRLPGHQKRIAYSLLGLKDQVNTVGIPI

B1: human ephrin A1-Fcy chimeric protein (ephrin A1-Fc) (Fc fusion, UniProt P20827 19-182, looked up, not shown: a dimerising Fc or GST)
chain: DRHTVFWNSSNPKFRNEDYTIHVQLNDYVDIICPHYEDHSVADAAMEQYILYLVEHEEYQLCQPQSKDQVRWQCNRPSAKHGPEKLSEKFQRFTPFTLGKEFKEGHSYYYISKPIHQHEDRCLRLKVTVSGKITHSPQAHDNPQEKRLAADDPEVRVLHSIGHS
On to B1, for which the “speed of locomotion of hCSCs within the myocardium (two-photon microscopy)” value turned out to be 2 fold.
